Key:
[1] = target: T1, AimR N30A (Bacillus phage SPbeta, UniProt O64094 1-386, N30A); assay: EMSA; EMSA: 25 mM Tris-HCl pH 8.0, 150 mM NaCl, 5 mM MgCl2, 5 mM DTT, 0.1 mg/ml BSA, 10% glycerol, 50 ug/ml salmon sperm DNA, 4 C, 15 min; smFRET: 20 mM phosphate pH; conditions: protein: recombinant; tags: 6xHis removed by drICE; chain copies: 2
T1 sequence: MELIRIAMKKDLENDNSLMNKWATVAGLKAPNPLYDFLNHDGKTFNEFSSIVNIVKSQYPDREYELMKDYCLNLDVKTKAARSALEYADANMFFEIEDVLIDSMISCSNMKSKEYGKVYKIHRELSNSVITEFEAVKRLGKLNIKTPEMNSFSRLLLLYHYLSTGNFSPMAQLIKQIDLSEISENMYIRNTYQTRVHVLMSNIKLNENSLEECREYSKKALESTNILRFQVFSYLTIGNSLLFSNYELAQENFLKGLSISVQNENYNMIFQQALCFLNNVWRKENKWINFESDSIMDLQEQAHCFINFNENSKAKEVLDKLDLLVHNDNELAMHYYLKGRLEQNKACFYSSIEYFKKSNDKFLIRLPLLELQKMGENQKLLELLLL

[2] = target: T2, AimR K77D (Bacillus phage SPbeta, UniProt O64094 1-386, K77D); assay: as above; conditions: protein: recombinant; tags: 6xHis removed by drICE; chain copies: 2
T2 sequence: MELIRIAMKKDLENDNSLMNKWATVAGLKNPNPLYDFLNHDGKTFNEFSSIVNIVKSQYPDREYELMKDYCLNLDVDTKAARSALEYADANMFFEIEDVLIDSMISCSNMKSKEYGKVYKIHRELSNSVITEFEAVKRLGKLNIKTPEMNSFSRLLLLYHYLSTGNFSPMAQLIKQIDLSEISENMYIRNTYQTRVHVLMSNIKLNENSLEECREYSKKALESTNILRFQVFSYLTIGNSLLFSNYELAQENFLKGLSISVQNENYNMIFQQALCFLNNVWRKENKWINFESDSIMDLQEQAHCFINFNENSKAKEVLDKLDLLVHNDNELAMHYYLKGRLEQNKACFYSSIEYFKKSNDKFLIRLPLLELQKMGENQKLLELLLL

[3] = target: T3, AimR (Bacillus phage SPbeta, UniProt O64094 1-386); assay: EMSA; 5 mM Mg2+; EMSA: 25 mM Tris-HCl pH 8.0, 150 mM NaCl, 5 mM MgCl2, 5 mM DTT, 0.1 mg/ml BSA, 10% glycerol, 50 ug/ml salmon sperm DNA, 4 C, 15 min; smFRET: 20 mM phosphate pH; conditions: protein: recombinant; tags: C-terminal 8xHis; chain copies: 2
T3 sequence: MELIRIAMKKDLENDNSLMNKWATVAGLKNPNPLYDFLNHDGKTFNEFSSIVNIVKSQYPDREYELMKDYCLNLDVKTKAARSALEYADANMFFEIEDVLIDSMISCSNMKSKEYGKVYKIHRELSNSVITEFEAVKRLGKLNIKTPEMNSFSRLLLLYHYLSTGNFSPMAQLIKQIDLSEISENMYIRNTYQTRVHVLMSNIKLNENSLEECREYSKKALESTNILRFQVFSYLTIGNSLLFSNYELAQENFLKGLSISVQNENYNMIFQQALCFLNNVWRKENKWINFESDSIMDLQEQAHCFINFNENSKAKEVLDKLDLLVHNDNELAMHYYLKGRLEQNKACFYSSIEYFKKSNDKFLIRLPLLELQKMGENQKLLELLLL

[4] = target: T4, AimR N32A (Bacillus phage SPbeta, UniProt O64094 1-386, N32A); assay: as above; conditions: protein: recombinant; tags: 6xHis removed by drICE; chain copies: 2
T4 sequence: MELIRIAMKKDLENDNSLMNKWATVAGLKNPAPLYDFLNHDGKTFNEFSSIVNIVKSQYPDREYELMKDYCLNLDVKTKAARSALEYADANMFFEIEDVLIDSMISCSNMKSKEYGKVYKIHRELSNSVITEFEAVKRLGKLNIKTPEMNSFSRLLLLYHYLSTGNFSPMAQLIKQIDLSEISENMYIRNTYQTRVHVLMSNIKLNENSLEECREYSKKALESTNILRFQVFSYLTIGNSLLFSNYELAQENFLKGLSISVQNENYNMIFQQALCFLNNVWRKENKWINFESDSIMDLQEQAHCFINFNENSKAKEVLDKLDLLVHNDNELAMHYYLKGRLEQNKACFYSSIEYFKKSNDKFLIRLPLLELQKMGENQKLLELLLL

[5] = target: T5, AimR T44D (Bacillus phage SPbeta, UniProt O64094 1-386, T44D); assay: as above; conditions: protein: recombinant; tags: 6xHis removed by drICE; chain copies: 2
T5 sequence: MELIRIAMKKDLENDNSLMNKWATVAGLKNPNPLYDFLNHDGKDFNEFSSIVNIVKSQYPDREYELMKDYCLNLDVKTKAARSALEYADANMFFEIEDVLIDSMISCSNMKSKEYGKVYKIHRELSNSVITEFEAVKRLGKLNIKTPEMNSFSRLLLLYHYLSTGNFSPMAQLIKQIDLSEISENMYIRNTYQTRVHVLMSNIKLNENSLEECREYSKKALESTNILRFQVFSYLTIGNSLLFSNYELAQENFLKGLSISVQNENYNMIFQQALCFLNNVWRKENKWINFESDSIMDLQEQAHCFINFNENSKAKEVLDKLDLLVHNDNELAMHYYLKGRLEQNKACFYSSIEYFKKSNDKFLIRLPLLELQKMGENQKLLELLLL

B1: 31 bp aimX-upstream palindromic DNA (dsDNA)
DNA 1: ACTTAAATATTAGGTTTTAATAACATCTAGT
DNA 2: ACTAGATGTTATTAAAACCTAATATTTAAGT
For B1, the binding result [1] was “binds”, the binding result [2] was “binds” and the Kd [3] was 0.101 ± 0.0276 µM. The Kd [4] was 6.82 ± 2.25 µM and the binding signal [5] was 11 fold lower affinity than WT AimR.

From article PMC6536502, “Structural insights into DNA recognition by AimR of the arbitrium communication system in the SPbeta phage” (Cell Discovery, 2019)
